Source: patent publication US20200181597A1, “Composition and Application of Arginine-depleting Agents for Cancer, Obesity, Metabolic Disorders, and Related Complications and Comorbidities” (THE HONG KONG POLYTECHNIC UNIVERSITY, priority 2018, published 2020)

Assays:
[1] = target: human serum albumin (HSA) (Homo sapiens, UniProt P02768); assay: Binding to HSA on non-denaturing PAGE; settings: fixed HSA titrated at various molar ratios
Procedure: When ABD is fused to rhArg or BCA, it is important for the fusion protein to retain both the albumin binding capacity and the enzymatic activity. […] The reaction mixtures were analyzed in their native condition on non-denaturing PAGE where the proteins were separated by size and conformation.
In FIG. 7, the mobility of each of HSA and N-ABD-rhArg (SEQ ID NO: 49) alone are shown in Lanes 2 and 3 of the non-denaturing PAGE, respectively (FIG. 7). A fixed amount of HSA (30 pmoles) was titrated against N-ABD-rhArg (SEQ ID NO: 49) at various molar ratios and the results are illustrated in Lanes 5-9. […] In FIG. 8, the mobility of each of HSA and BHA (SEQ ID NO: 75) alone are shown in Lanes 6 and 7 of the non-denaturing PAGE, respectively (FIG. 8). A fixed amount of HSA (60 pmoles) was titrated against BHA (SEQ ID NO: 75) at various molar ratios and the results are illustrated in Lanes 1-5.

[2] = system: plasma arginine; assay: Plasma arginine after single i.p. dose of N-ABD-rhArg (Biochrom 30); assay type: in vivo, BALB/c mice
Procedure: FIG. 10 illustrates plasma arginine concentrations, measured using the Biochrom 30 Amino Acid Analyzer, of BALB/c mice after receiving intraperitoneal injection of a single dose of (A) 125U; (B) 250U; and (C) 500U of N-ABD-rhArg (SEQ ID NO: 49). N-ABD-rhArg (SEQ ID NO: 49) was injected at day 0.
Fifteen female BALB/c mice (10 weeks of age) were used in this study. They were kept in groups of five per cage. A single dose of N-ABD-rhArg (SEQ ID NO: 49) (500 U, 250 U, and 125 U, respectively) was administered to the mice via i.p. injection. Blood samples were collected from the saphenous vein using heparinized capillary tubes, and were centrifuged at 800×g to obtain plasma. Sixteen microliters of plasma sample was subjected to measurement of L-arginine concentration using the Biochrom 30 Amino Acid Analyzer. […] In comparing with BHA (SEQ ID NO: 75) (FIG. 9), N-ABD-rhArg (SEQ ID NO: 49) can deplete arginine to a very low level in the mice for exceptionally longer period, which highlights the importance of the requirement for rational design of the fusion protein.

[3] = system: 4T1 breast cancer xenograft; assay: 4T1 breast cancer xenograft in nude mice; assay type: in vivo, female nude mice
Procedure: (§1) For the aggressive 4T1 breast cancer cell xenograft model studies, 10 female nude mice (11-12 weeks of age) were used. They were kept in groups of five per cage and provided food and water ad libitum. The 4T1 cancer cells were harvested by trypsinization and washed twice with 1×PBS and resuspended in 1×PBS for inoculation. The cancer cells (1×10^6 cells of 4T1) were injected subcutaneously into the left flank of the mice. […] They were injected with either 500U (3.2 mg, 230 μL) N-ABD-rhArg (SEQ ID NO: 49) or 1×PBS once per week. Blood samples were collected from the saphenous vein. Tumor size and the body weight of mice were monitored regularly. The tumor volume was estimated by the following equation: […]
The mice were sacrificed after 16 days of cancer cell inoculation (i.e. 13 days after starting of the experiment) because of necrosis of tumor in the PBS-injected control group. After being sacrificed, tumors were collected from the mice and the weight of the tumor was measured. Lungs were also collected and washed with 1×PBS. The lungs were fixed in Bouin's solution overnight and washed with 1×PBS after fixation. Lung metastatic nodules were counted.

[4] = system: serum arginine; assay: Serum arginine in 4T1 xenograft nude mice (Biochrom 30); assay type: in vivo; settings: BDL: Below Detection Level
Procedure: as §1
Importantly, 500U of the albumin-binding arginase N-ABD-rhArg (SEQ ID NO: 49) depleted arginine to a level below the detection limit of the Biochrom 30 Amino Acid Analyzer (3 μM) for at least 10 days in BALB/c mice (FIG. 10). Therefore, 500 U of N-ABD-rhArg (SEQ ID NO: 49) was administered via i.p. injection once per week to the 4T1 breast cancer xenograft nude mice for efficacy study.

[5] = system: 4T1 breast cancer allograft; assay: 4T1 breast cancer allograft study; assay type: in vivo, female nude mice
Procedure: In another 4T1 breast cancer allograft study, female nude mice (5-6 weeks of age) were used. They were kept in groups of five per cage and provided food and water ad libitum. Cells of 4T1 breast cancer ([…]) were injected subcultuaneously into the right flank of the mice. […] There were one control group (n=8) and three experimental groups, including 500U PEGylated His-rhArg (SEQ ID NO: 101) (n=8), 500U N-ABD-rhArg (SEQ ID NO: 49) (n=6) and 250U N-ABD-rhArg (SEQ ID NO: 49) (n=8). Mice in the control group were injected with 1×PBS weekly. For the 500U ABD-rhArg group and the 250U ABD-rhArg group, mice were injected with 500U and 250U ABD-rhArg once a week, respectively; one group was injected with 500U PEG-rhArg once per week. The mice were sacrificed after 24 days of inoculation (i.e. 14 days after starting of experiment) because of necrosis of tumor in PBS control group. After sacrificing, the mice were dissected. Tumors were collected from the mice and measured their weight. Lungs were also collected and washed with 1×PBS. The lungs were fixed in Bouin's solution overnight and washed with 1×PBS after fixation. Lung metastatic nodules were counted.

[6] = literature; cited from earlier work
[7] = Enzyme kinetics after metal ion substitution; assay type: biochemical
Procedure: Wild type arginase typically includes a Mn^2+ metal ion (D′Antonio & Christianson, 2011, Biochemistry, 50:8018-27). […] Purified N-ABD094-rhArg (SEQ ID NO: 50) in 20 mM Tris-HCl buffer (pH 7.4) was mixed with 20 mM of different divalent metal ions (Mn^2+, Ni^2+ or Co^2+), and was incubated at 52-55° C. for 15-60 min and then buffer exchanged with PBS buffer (pH 7.4).
Samples were subjected to enzyme activity and enzyme kinetic studies to determine the specific activity and catalytic efficiency (kcat/Km). Samples were applied to inductively coupled plasma atomic emission spectroscopy (ICP-OES, Agilent 700 Series ICP optical emission spectrometer) for quantitative analysis of metal content.

[8] = DIO mice treated with N-ABD094-rhArg-Co^2+; assay type: in vivo, C57BL/6J male mice; settings: 25-100U i.p., within 5 weeks, from 55 g, HFD continued
Description: Production of N-ABD094-rhArg-Co^2+ [SEQ ID NO: 50 (cobalt substituted)] is described in Example 32. C57BL/6J male mice with pre-existing diet-induced obesity (DIO) received i.p. injection of 25-100U N-ABD094-rhArg-Co^2+[SEQ ID NO: 50 (cobalt substituted)] for 5 weeks, while continuously being fed a HFD.

B1: N-ABD-rhArg: albumin binding domain (ABD) fused N-terminally to recombinant human arginase I, SEQ ID NO: 49 (protein)
chain: MHHHHHHDEAVDANSLAEAKVLANRELDKYGVSDYYKNLINNAKTVEGVKALIDEILAALPSGSNNNNNNGSGGMSAKSRTIGIIGAPFSKGQPRGGVEEGPTVLRKAGLLEKLKEQECDVKDYGDLPFADIPNDSPFQIVKNPRSVGKASEQLAGKVAEVKKNGRISLVLGGDHSLAIGSISGHARVHPDLGVIWVDAHTDINTPLTTTSGNLHGQPVSFLLKELKGKIPDVPGFSWVTPCISAKDIVYIGLRDVDPGEHYILKTLGIKYFSMTEVDRLGIGKVMEETLSYLLGRKKRPIHLSFDVDGLDPSFTPATGTPVVGGLTYREGLYITEEIYKTGLLSGLDIMEVNPSLGKTPEEVTRTVNTAVAITLACFGLAREGNHKPIDYLNPPK
modifications: N-ABD-rhArg, Synthesized in the Lab
binding to HSA (free HSA reduced in a proportional manner) [1]: specific binding | time serum arginine below detection limit (3 μM) ([2]; single i.p. dose 125U): at least 3 days | time serum arginine below detection limit (3 μM) ([2]; single i.p. dose 250U): at least 7 days | growth of 4T1 breast cancer xenograft ([3]; 500U once per week): inhibit the growth | Number of metastatic nodules found in lungs ([3]; 500 U once per week, n = 4 (PBS control: 3)): 0 | % of metastasis free animals ([3]; 500 U once per week, n = 4 (PBS control: 50%)): 100% | estimated tumor volume vs control group ([3]; 500U once per week, 12 days and 13 days after starting): significant difference | Arginine Concentration (serum), individual mice 1-4 ([4]; Day 6, 500 U once per week): 0 (BDL) μM | Arginine Concentration (serum), individual mice 1-4 ([4]; Day 13, 500 U once per week): 0 (BDL) μM | growth of 4T1 solid tumor ([5]; 250U once per week): did not inhibit the growth | growth of 4T1 solid tumor ([5]; 500U once per week): inhibited the growth of the aggressive 4T1 solid tumor significantly | metastasis nodules from the lungs vs control group ([5]; 500U once per week): very significantly reduced

B2: human arginase: unmodified human arginase (Georgiou et al.) (protein, UniProt P05089 1-322, looked up)
Arginase-1: MSAKSRTIGIIGAPFSKGQPRGGVEEGPTVLRKAGLLEKLKEQECDVKDYGDLPFADIPNDSPFQIVKNPRSVGKASEQLAGKVAEVKKNGRISLVLGGDHSLAIGSISGHARVHPDLGVIWVDAHTDINTPLTTTSGNLHGQPVSFLLKELKGKIPDVPGFSWVTPCISAKDIVYIGLRDVDPGEHYILKTLGIKYFSMTEVDRLGIGKVMEETLSYLLGRKKRPIHLSFDVDGLDPSFTPATGTPVVGGLTYREGLYITEEIYKTGLLSGLDIMEVNPSLGKTPEEVTRTVNTAVAITLACFGLAREGNHKPIDYLNPPK
half-life / clearance in circulation [6]: a few minutes

B3: N-ABD094-rhArg-Co^2+: cobalt-substituted N-ABD094-rhArg enzyme (protein)
chain: MHHHHHHDEAVDANSLAEAKEAANAELDSYGVSDFYKRLIDKAKTVEGVEALKDAILAALPSGSNNNNNNGSGGMSAKSRTIGIIGAPFSKGQPRGGVEEGPTVLRKAGLLEKLKEQECDVKDYGDLPFADIPNDSPFQIVKNPRSVGKASEQLAGKVAEVKKNGRISLVLGGDHSLAIGSISGHARVHPDLGVIWVDAHTDINTPLTTTSGNLHGQPVSFLLKELKGKIPDVPGFSWVTPCISAKDIVYIGLRDVDPGEHYILKTLGIKYFSMTEVDRLGIGKVMEETLSYLLGRKKRPIHLSFDVDGLDPSFTPATGTPVVGGLTYREGLYITEEIYKTGLLSGLDIMEVNPSLGKTPEEVTRTVNTAVAITLACFGLAREGNHKPIDYLNPPK
modifications: cobalt substituted; N-ABD094-rhArg, Synthesized in the Lab
notes: cobalt-substituted N-ABD094-rhArg enzyme
Km [7]: 270 to 350 µM | kcat [7]: 250 to 316 s⁻¹ | bodyweight after treatment [8]: 30 g
